The target of assay [1] is T1, RAGE(1-404)-3xflag-eBFP (plasmid p605) on HepG2 cells.
T1 construct: also called p605-HepG2 cells; p605 cells
Briefly: flow cytometry on fixed p605-HepG2 cells, 1 ug and 5 ug in 100 uL, FITC anti-HA detection. The procedure: (5) 1 μg and 5 μg of antiRAGE(A90)-Fc were respectively added to 100 μL of the incubation system to incubate at 4° C. for 2 h. The cells were washed and resuspended with 0.5% BSA diluted in PBS.
(6) 1 μL of FITC-conjugated antiHA antibody was respectively added to cells without A90-Fc antibody and cells incubated with A90-Fc antibody to incubate at room temperature for 1 h. The cells were washed twice with PBS, and then resuspended with PBS.
On the technique in general: Flow cytometry measures light scatter and fluorescence of single cells or particles in a stream.

For the next assay, the target named is T2, Cyno-RAGE-ECD-Fc(IgG1) (monkey (cyno)).
T2 construct: also called P38408
Briefly: ELISA, antigen with and without NHS-biotin label coated at 4 ug/mL.

For another assay, the target named is T3, Human-RAGE-ECD-His (human, UniProt Q15109 23-342).
T3 construct: also called P38405
The description is as above.

The target of another assay is T4, Cyno-RAGE-ECD-His (monkey (cyno), UniProt Q15109 23-342 (human entry)).
T4 construct: also called P38407
T4 chain: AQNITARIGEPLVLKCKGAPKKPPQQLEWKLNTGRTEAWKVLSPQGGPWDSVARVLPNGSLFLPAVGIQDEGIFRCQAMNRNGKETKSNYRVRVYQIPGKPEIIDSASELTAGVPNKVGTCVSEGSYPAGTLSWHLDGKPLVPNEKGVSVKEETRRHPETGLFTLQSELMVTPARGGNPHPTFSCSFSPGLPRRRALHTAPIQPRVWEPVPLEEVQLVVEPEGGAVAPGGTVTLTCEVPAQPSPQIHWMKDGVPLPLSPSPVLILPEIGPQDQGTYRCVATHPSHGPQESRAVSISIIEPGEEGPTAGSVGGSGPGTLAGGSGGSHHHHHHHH
The assay is described as above.

In a further assay the target is T5, Mouse-RAGE-ECD-His (mouse, UniProt Q62151 23-340).
T5 construct: also called P38409
The description is as above.

The next assay concerns the target T6, Mouse-RAGE-ECD-Fc(IgG1) (mouse).
T6 construct: also called P38410
The assay is described as above.

A further assay deals with T7, Human-RAGE-ECD-Fc(IgG1) (human).
T7 construct: also called P38406
As to the kind of experiment: ELISA, antigen coated at 2 ug/mL, anti-human kappa+lambda-HRP. (ELISA stands for enzyme-linked immunosorbent assay.)

Assay [2] concerns the target T8, RAGE(1-404)-3xflag-mCherry (plasmid p318) on 293F cells (human).
T8 construct: also called p318 cells
As to the kind of experiment: flow cytometry on fixed p318-293F cells, 5 ug scFv in 100 uL, FITC anti-HA detection.

T5 sequence (Q62151 other isoform, or with tags, fused parts or gaps): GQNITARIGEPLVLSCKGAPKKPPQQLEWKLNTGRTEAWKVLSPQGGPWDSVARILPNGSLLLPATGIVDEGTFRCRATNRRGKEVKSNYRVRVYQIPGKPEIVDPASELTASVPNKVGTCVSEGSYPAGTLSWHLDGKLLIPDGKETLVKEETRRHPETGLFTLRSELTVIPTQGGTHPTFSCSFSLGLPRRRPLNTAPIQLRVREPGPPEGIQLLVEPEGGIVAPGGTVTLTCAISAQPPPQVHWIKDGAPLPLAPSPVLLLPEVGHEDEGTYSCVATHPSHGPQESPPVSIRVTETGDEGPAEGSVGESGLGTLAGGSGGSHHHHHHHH
T6 sequence (chain, as listed by the source limits assumed): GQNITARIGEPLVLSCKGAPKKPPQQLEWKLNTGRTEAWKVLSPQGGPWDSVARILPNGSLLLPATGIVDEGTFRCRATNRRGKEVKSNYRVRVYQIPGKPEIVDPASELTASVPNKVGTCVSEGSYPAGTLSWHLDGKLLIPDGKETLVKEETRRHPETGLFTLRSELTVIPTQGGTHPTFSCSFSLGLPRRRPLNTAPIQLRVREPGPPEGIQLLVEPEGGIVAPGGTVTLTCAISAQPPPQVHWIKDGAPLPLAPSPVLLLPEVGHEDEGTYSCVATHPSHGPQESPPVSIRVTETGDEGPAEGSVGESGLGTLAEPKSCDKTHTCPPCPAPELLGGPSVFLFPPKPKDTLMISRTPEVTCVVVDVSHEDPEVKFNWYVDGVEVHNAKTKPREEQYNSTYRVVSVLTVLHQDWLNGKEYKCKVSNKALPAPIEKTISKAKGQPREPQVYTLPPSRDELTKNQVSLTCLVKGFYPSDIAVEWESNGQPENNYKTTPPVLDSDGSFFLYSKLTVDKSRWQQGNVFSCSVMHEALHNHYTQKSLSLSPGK

B1: antiRAGE(A90)-Fc (antibody, human IgG1, kappa)
heavy: not shown
light: NIQLTQSPSTLSASVGDRVTITCRASQSISSWLAWYQQKPGKAPKLLIYQASSLESGVPSRFSGSGSGTEFTLTIRSLQPEDFAVYFCQQYKDYPLTFGGGTKVDIKRTVAAPSVFIFPPSDEQLKSGTASVVCLLNNFYPREAKVQWKVDNALQSGNSQESVTEQDSKDSTYSLSSTLTLSKADYEKHKVYACEVTHQGLSSPVTKSFNRGEC
notes: also called antiRAGE(A90)-Fc-G4S-HA; antiRAGE-Fc-G4S-HA-ALFA
Consider B1, for which the binding result in assay [1] was “binds”.

B2: h11E6.16 (antibody, human IgG1, kappa, V domains shown)
VH: EIQLVQSGAEVKKPGASVKVSCKASGYTFTNFGMNWVRQAPGQGLEWMGYINTNTGESIYSEEFKGRFTFTLDTSTSTAYMELSSLRSEDTAVYFCARSRMVTAYGMDYWGQGTSVTVSS
VL: EIVMTQSPATLSLSPGERATLSCKASQNVGTAVAWYQQKPGQSPRLLIFSASNRYTGVPARFSGSGSGTDFTLTISSLQSEDFAVYFCQQYSSYPLTFGQGTKLEIKR
notes: also called h11E6.16 antibody (P38411); P38411
With B2, the binding result in the assay with Cyno-RAGE-ECD-Fc(IgG1), with Human-RAGE-ECD-His, with Cyno-RAGE-ECD-His, with Mouse-RAGE-ECD-His, in the assay with Mouse-RAGE-ECD-Fc(IgG1) and with Human-RAGE-ECD-Fc(IgG1) was “binds” throughout.

B3: 6xHis-antiRAGE(A90)-scFv-G4S-HA (scFv)
scFv: HHHHHHQVQLVQSGAEVKKPGSSVKVSCKASGGTFNNYAINWARQAPGQGLEWMGRIVPFFDVTNYAQKFQGRVTITADKSTSTAYMELSSLRSEDTAIYYCAIGSFNWNSGAFDIWGQGTPVTVSSGGGGSGGGGSGGGGSNIQLTQSPSTLSASVGDRVTITCRASQSISSWLAWYQQKPGKAPKLLIYQASSLESGVPSRFSGSGSGTEFTLTIRSLQPEDFAVYFCQQYKDYPLTFGGGTKVDIKGGGGSYPYDVPDYA
notes: also called antiRAGE scFv antibody; antiRAGE-scFv
Turning to B3, the binding result in assay [2] was “binds”.

The values above are taken from US20250304681A1 (BEIJING ECHO BIOTECH, published 2025).
